Reference: publication PMC9482650, “Quantitative fragmentomics allow affinity mapping of interactomes” (Nature Communications, 2022)
One block for each binder: values may come before it.

Experiments:
Experiment in all cases: holdup assay
Set-up in all cases: key: below the threshold = too weak to quantify, mostly under pKd 3.1 to 4
Conditions in all cases: plain residues with an end cap or a label only (N-terminal biotin on a linker: ado-ado)
[1] = target: HTRA2, O43464
[2] = target: T1, SNTA1, Q13424
T1 sequence (Q13424 82-180, limits assumed, looked up): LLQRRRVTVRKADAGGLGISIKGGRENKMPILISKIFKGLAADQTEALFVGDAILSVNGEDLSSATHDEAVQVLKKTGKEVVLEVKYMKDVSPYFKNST

[3] = target: GOPC, Q9HD26
[4] = target: T2, PTPN13_1, Q12923
T2 sequence (Q12923 1088-1188, limits assumed, looked up): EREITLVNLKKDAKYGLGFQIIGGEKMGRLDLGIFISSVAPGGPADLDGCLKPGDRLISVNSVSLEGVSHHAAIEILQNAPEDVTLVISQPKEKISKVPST

[5] = target: LDB3, O75112
Sequence of LDB3, O75112 (O75112 1-94): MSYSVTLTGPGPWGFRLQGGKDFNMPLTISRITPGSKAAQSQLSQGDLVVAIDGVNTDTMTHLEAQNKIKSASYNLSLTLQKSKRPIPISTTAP

[6] = target: SCRIB_1, Q14160
Sequence of SCRIB_1, Q14160 (Q14160 718-814): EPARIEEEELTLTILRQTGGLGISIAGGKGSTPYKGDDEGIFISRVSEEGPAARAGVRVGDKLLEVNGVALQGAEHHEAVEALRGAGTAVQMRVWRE

[7] = target: Inadl_4, Q8NI35
Sequence of Inadl_4, Q8NI35 (Q8NI35 547-651): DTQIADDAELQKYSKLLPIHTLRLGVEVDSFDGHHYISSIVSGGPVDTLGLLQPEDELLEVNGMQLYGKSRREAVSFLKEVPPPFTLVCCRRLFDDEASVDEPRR

[8] = target: MAST2, Q6P0Q8
Sequence of MAST2, Q6P0Q8 (Q6P0Q8 1099-1202): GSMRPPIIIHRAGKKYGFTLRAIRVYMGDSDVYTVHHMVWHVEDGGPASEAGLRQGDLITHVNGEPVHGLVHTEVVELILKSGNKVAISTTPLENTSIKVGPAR

[9] = target: T3, GRIP1_2, Q9Y3R0
T3 sequence (Q9Y3R0 145-248, limits assumed, looked up): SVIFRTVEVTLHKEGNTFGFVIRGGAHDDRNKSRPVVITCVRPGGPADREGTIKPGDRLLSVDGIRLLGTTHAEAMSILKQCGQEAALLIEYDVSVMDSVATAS

[10] = target: T4, GRIP1_3, Q9Y3R0
T4 sequence (Q9Y3R0 247-346, limits assumed, looked up): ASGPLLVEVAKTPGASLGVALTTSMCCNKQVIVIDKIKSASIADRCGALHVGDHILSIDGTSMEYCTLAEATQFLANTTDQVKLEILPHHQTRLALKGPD

[11] = target: T5, LNX2_2, Q8N448
T5 sequence (Q8N448 334-432, limits assumed, looked up): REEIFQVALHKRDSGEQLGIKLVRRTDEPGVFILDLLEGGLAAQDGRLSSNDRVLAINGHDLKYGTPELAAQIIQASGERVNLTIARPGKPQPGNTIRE

[12] = target: T6, GRIP1_4, Q9Y3R0
T6 sequence (Q9Y3R0 467-571, limits assumed, looked up): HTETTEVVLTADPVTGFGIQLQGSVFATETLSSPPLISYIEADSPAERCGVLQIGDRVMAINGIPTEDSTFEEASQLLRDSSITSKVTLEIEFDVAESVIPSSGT

[13] = target: GRIP2_7, Q9C0E4
Sequence of GRIP2_7, Q9C0E4 (Q9C0E4 934-1023): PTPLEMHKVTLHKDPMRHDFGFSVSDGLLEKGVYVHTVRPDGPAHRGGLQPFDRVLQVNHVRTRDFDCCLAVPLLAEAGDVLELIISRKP

[14] = target: Inadl_3, Q8NI35
Sequence of Inadl_3, Q8NI35 (Q8NI35 359-469): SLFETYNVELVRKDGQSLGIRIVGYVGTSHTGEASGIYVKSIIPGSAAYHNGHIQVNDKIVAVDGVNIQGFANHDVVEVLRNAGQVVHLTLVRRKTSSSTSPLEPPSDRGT

[15] = target: ARHGEF12, Q9NZN5-2
Sequence of ARHGEF12, Q9NZN5-2 (Q9NZN5 other isoform, or with tags, fused parts or gaps): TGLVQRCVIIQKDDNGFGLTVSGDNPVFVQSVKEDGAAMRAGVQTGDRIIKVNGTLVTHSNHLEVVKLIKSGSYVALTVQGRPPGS

[16] = target: Inadl_1, Q8NI35
Sequence of Inadl_1, Q8NI35 (Q8NI35 113-229): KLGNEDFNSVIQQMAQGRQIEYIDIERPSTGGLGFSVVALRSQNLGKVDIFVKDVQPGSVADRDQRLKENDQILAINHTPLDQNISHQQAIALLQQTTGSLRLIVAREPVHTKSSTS

[17] = target: LNX1_2, Q8TBB1
Sequence of LNX1_2, Q8TBB1 (Q8TBB1 371-470): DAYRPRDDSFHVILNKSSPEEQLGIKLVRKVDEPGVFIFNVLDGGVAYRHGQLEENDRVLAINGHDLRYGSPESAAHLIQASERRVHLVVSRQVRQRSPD

[18] = target: DLG2_3, Q15700
[19] = target: GIPC2, Q8TF65
Sequence of GIPC2, Q8TF65 (Q8TF65 112-203): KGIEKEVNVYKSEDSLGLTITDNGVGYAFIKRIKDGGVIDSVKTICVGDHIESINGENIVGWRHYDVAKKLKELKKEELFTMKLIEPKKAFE

[20] = target: T7, SIPA1L2, Q9P2F8
T7 sequence (Q9P2F8 945-1036, limits assumed, looked up): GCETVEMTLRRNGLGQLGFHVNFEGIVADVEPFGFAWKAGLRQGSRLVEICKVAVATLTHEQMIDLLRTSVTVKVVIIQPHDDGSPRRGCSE

[21] = target: DLG2_2, Q15700
[22] = target: T8, APBA2_1, Q99767
T8 sequence (Q99767 563-664, limits assumed, looked up): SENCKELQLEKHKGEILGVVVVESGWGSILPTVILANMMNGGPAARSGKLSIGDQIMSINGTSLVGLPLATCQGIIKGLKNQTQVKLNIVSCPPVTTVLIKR

[23] = target: T9, PDZD7_3, Q9H5P4
T9 sequence (Q9H5P4 857-944, limits assumed, looked up): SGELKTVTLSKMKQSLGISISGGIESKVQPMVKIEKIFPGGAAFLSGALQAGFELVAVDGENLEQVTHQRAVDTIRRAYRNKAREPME

[24] = target: T10, ARHGEF11, O15085
T10 sequence (O15085 42-136, limits assumed, looked up): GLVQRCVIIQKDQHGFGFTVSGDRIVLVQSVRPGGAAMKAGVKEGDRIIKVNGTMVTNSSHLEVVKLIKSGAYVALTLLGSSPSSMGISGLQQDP

[25] = target: T11, MPDZ_12, O75970
T11 sequence (O75970 1857-1958, limits assumed, looked up): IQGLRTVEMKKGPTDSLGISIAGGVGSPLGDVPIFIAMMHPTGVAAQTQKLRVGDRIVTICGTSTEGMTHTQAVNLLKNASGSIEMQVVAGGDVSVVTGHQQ

[26] = target: PICK1, Q9NRD5
Sequence of PICK1, Q9NRD5 (Q9NRD5 17-115): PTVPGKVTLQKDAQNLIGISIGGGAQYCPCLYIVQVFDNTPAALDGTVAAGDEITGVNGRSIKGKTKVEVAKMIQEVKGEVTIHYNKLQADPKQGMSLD

[27] = target: PDLIM1, O00151
Sequence of PDLIM1, O00151 (O00151 1-87): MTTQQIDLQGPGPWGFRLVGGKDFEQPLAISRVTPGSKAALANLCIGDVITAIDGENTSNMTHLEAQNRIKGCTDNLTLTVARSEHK

Sequence of HTRA2, O43464 (O43464 355-458): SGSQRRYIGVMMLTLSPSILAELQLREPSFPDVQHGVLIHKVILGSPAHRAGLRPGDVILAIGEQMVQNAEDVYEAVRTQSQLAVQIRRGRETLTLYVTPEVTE

Binder: VKRNSKETVV [MARCHF3, Q86UD3]
pKd [1]: below the threshold | pKd [2]: 5.37 | pKd [3]: below the threshold | pKd [4]: 3.53 | pKd [5]: below the threshold | pKd [6]: 4.55 | pKd [7]: below the threshold | pKd [8]: 4.68 | pKd [9]: below the threshold | pKd [10]: below the threshold | pKd [11]: 5.2 | pKd [12]: below the threshold | pKd [13]: below the threshold | pKd [14]: 3.49 | pKd [15]: 4.13 | pKd [16]: below the threshold | pKd [17]: 3.68 | pKd [18]: 4.91 | pKd [19]: below the threshold | pKd [20]: below the threshold | pKd [21]: 6.12 | pKd [22]: below the threshold | pKd [23]: 4.82 | pKd [24]: 4.04 | pKd [25]: below the threshold | pKd [26]: below the threshold | pKd [27]: below the threshold

Binder: ILRKSTTTTV [PRR16, Q569H4]
pKd [1]: below the threshold | pKd [2]: 3.92 | pKd [3]: 3.92 | pKd [4]: below the threshold | pKd [5]: below the threshold | pKd [6]: 3.76 | pKd [7]: below the threshold | pKd [8]: 5.05 | pKd [9]: below the threshold | pKd [10]: below the threshold | pKd [11]: 4.84 | pKd [12]: below the threshold | pKd [13]: below the threshold | pKd [14]: below the threshold | pKd [15]: 4.26 | pKd [16]: below the threshold | pKd [17]: 3.8 | pKd [18]: 4.38 | pKd [19]: below the threshold | pKd [20]: below the threshold | pKd [21]: 5.17 | pKd [22]: below the threshold | pKd [23]: 4.67 | pKd [24]: 4.04 | pKd [25]: below the threshold | pKd [26]: 3.95 | pKd [27]: below the threshold

Now from value to binder:

pKd [1]: below the threshold | pKd [2]: below the threshold | pKd [3]: below the threshold | pKd [4]: below the threshold | pKd [5]: below the threshold | pKd [6]: below the threshold | pKd [7]: below the threshold | pKd [8]: 4.54 | pKd [9]: below the threshold | pKd [10]: below the threshold | pKd [11]: below the threshold | pKd [12]: below the threshold | pKd [13]: below the threshold | pKd [14]: below the threshold | pKd [15]: 3.79 | pKd [16]: below the threshold | pKd [17]: below the threshold | pKd [18]: 4.09 | pKd [19]: below the threshold | pKd [20]: below the threshold | pKd [21]: 4.16 | pKd [22]: below the threshold | pKd [23]: below the threshold | pKd [24]: 3.74 | pKd [25]: 3.52 | pKd [26]: below the threshold | pKd [27]: below the threshold
Binder: STKRKLASAV [NCF1, P14598]

pKd [1]: below the threshold | pKd [2]: below the threshold | pKd [3]: below the threshold | pKd [4]: below the threshold | pKd [5]: below the threshold | pKd [6]: 3.81 | pKd [7]: below the threshold | pKd [8]: 5.02 | pKd [9]: below the threshold | pKd [10]: below the threshold | pKd [11]: 4.39 | pKd [12]: below the threshold | pKd [13]: below the threshold | pKd [14]: below the threshold | pKd [15]: 4.03 | pKd [16]: below the threshold | pKd [17]: below the threshold | pKd [18]: 4.23 | pKd [19]: below the threshold | pKd [20]: below the threshold | pKd [21]: 4.06 | pKd [22]: below the threshold | pKd [23]: 3.82 | pKd [24]: 4.04 | pKd [25]: 3.62 | pKd [26]: below the threshold | pKd [27]: below the threshold
Binder: LESTTVGTSV [KARS1, Q15046]
